# Reference: PMC6414199, “Bim escapes displacement by BH3-mimetic anti-cancer drugs by double-bolt locking both Bcl-XL and Bcl-2” (eLife, 2019)
# Tests used:
# [1] = biological target: Bcl-XL single-cysteine mutant 152C, Alexa647-labelled, Q07817-1; assay: FRET with purified proteins; details: chain shown with the change, highest ABT-263 point, x position est. about 3000 nM, read off a plot
# [2] = biological target: mCerulean3-Bcl-2 (human), P10415; assay: FRET or BRET; FLIM-FRET in live MCF-7 cells: mCer3-Bcl-XL or mCer3-Bcl-2 stably expressed (donor), Venus-BH3 protein transiently expressed (acceptor); binding curves of FLIM-FRET efficiency against the Venus:mCer3 intensity ratio, 25 C; untreated, DMSO, 20 uM ABT-263 (18-24 h) or 1.25-20 uM A-1155463, A-1331852, ABT-263; R values interpolated at ratio 0.5 (Bcl-XL) or 0.25 (Bcl-2), ^VBad4E signal subtracted; details: remark: other sources report otherwise
# Sequence of mCerulean3-Bcl-2 (human), P10415 (P10415 whole entry): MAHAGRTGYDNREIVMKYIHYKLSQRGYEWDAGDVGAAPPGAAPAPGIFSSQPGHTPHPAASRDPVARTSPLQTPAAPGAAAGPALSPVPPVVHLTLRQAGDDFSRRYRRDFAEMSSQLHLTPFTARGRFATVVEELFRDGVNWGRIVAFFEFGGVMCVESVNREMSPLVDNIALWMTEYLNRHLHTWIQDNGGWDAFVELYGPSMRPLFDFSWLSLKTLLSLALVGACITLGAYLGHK
# [3] = biological target: mCerulean3-Bcl-XL (human), Q07817; assay: as above; details: remark: other sources report otherwise
# Sequence of mCerulean3-Bcl-XL (human), Q07817 (Q07817 whole entry): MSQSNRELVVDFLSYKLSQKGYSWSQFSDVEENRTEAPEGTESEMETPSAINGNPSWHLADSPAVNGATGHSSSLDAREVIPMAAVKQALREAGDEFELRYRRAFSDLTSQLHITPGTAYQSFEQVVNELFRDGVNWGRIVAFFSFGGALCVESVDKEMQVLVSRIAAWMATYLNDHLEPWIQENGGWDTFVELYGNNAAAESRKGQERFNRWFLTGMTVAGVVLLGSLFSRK
# [4] = in solution, without liposomes, parent: est. 68
# [5] = with liposomes, parent: est. 99
# Sequence of Bcl-XL single-cysteine mutant 152C, Alexa647-labelled, Q07817-1 (Q07817 whole entry, stated change not applied): as the sequence (Q07817 whole entry) above
"response (% BH3 protein bound) [1, 4]","response (% BH3 protein bound) [1, 5]","R (ABT-263), % of FRET signal left with 20 uM ABT-263 [2] [%]",IC50 of A-1155463 for disrupting the pair [3] [nM],IC50 of A-1331852 for disrupting the pair [3] [nM],IC50 of ABT-263 for disrupting the pair [3] [nM],"R (ABT-263), % of FRET signal left with 20 uM ABT-263 [3] [%]","R with A-1155463, % of FRET signal left [3] [%]","R with A-1331852, % of FRET signal left [3] [%]",Binder
18,22,–,–,–,–,–,–,–,"BimL single-cysteine mutant 41C, Alexa568-labelled I188E (protein) MAKQPSDVSSECDREGGQLQPAERPPQLRPGAPTSLQTEPCDRSPAPMSCDKSTQTPSPPCQAFNHYLSAMASIRQSQEEPEDLRPEIRIAQELRRIGDEFNETYTRRVFANDYREAEDHPQMVILQLLRFEFRLVWRRH"
14,24,–,–,–,–,–,–,–,"BimL single-cysteine mutant 41C, Alexa568-labelled I181E (protein) MAKQPSDVSSECDREGGQLQPAERPPQLRPGAPTSLQTEPCDRSPAPMSCDKSTQTPSPPCQAFNHYLSAMASIRQSQEEPEDLRPEIRIAQELRRIGDEFNETYTRRVFANDYREAEDHPQMVELQLLRFIFRLVWRRH"
–,–,18.6,< 1250,< 1250,> 10000,46.4,45,20,"Venus-Bad, Q92934 1-168 (natural protein) MFQIPEFEPSEQEDSSSAERGLGPSPAGDGPSGSGKHHRQAPGLLWDASHQQEQPTSSSHHGGAGAVEIRSRHSSYPAGTEDDEGMGEEPSPFRGRSRSAPPNLWAAQRYGRELRRMSDEFVDSFKKGLPRPKSAGTATQMRQSSSWTRVFQSWWDRNLGRGSSAPSQ"
